Reference: paper PMC11770808, “Interplay between conformational dynamics and substrate binding regulates enzymatic activity: a single-molecule FRET study” (Chemical Science, 2025)

Tested on: T1, Nc1ncnc2c1ncn2[C@@H]1O[C@H](COP(=O)(O)OP(=O)(O)O)[C@@H](O)[C@H]1O
T1 construct: purified recombinant, details only in ESI
Test: coupled assay (hexokinase / glucose-6-phosphate dehydrogenase), initial velocities fitted to Michaelis-Menten
Format: biochemical, Escherichia coli
Details: backward reaction, 0 M urea, dye-labelled enzyme (A73C/V142C background inferred), 50 mM Tris-HCl pH 8.0, 100 mM KCl, 10 mM MgCl2

## adenylate kinase (AK), wild-type (WT) (Escherichia coli K-12; A73C/V142C)
  Km: 1340(±98) µM
